One molecule from publication PMC11603049 can be followed below.

For this data set, the target named is MARV NPcore (VP35 NPBP removed by TEV) (Marburg virus (Mt. Elgon-Musoke strain), UniProt P27588 1-430).
Sequence of MARV NPcore (VP35 NPBP removed by TEV) (P27588 1-430): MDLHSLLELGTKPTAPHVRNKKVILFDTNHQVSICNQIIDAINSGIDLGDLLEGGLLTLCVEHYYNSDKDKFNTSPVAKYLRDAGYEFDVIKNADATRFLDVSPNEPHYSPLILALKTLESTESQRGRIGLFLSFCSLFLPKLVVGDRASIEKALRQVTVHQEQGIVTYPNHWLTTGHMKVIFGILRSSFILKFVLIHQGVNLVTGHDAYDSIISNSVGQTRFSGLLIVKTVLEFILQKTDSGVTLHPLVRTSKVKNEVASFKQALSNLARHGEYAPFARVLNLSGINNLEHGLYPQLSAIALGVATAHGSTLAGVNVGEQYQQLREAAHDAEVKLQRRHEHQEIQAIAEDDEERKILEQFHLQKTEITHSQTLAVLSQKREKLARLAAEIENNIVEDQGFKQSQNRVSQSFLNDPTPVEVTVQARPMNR

Turning to AGACACACAAAAACAAGA (ssRNA) [18 nt ssRNA, first 18 bases of the MARV genome], the binding result is recorded as “binds”.
